From US20120039932A1

Target: human DC-SIGN (CD209), expressed on 293T cells (human) (UniProt Q9NNX6)
Test: cell-based or functional assay

Chain of UniProt Q9NNX6 (Q9NNX6 whole entry): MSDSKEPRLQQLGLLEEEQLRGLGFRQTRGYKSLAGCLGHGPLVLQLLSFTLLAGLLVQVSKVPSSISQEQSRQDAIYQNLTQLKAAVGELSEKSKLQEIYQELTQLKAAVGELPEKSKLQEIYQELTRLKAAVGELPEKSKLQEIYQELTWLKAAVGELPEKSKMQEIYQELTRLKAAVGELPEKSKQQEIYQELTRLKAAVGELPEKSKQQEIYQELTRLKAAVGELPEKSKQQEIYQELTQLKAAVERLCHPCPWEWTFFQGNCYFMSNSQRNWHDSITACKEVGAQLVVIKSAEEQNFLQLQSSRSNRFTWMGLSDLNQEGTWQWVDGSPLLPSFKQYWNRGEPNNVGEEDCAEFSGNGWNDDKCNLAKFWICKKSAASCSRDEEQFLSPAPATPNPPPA

## Sindbis virus HR strain envelope E2 glycoprotein, on pseudotyped lentiviral vector particles (from UniProt P03316 329-751)
  GFU/mL on 293-hDC-SIGN cells (transduction titer): 6.4e+06 GFU/mL
  Ratio (GFU/mL on 293-hDC-SIGN cells over 293T cells): 9.4

## VSV-G envelope glycoprotein, on pseudotyped lentiviral vector particles (from UniProt P03522 17-511)
  GFU/mL on hDC-SIGN cells (transduction titer): 1.35e+08 GFU/mL
  Ratio (GFU/mL on hDC-SIGN cells over 293T cells): 1.19
